Assay: soluble on expression in E. coli; label from the status in PepcDB or PDB records
In the case of “MSLNELPRPDMMFGLKVVLAATDFSARSDRAVRRAAALARQSGARLVIAHVVDDDQPEHIVAVEVELAESALADAIREHTYLAGLQCTPLVLLGTPFDAIVRAAHQQGADLCVVGSHRRAFLRDIFAGTTAERVIRNSTVPVLMANLDPALPYAKSLAPVDLTDCSAQALETARQLGLLQRTKLIVMHVYDAAAAGMLNYAGVDKTSLDDYLVDTRTDAVRDLVRFLEPLRLDDVDYSTVVKEGAGPATDIIEAATELRPDLVVIGTHARRGAVRLLLSSVTEEVLRRLQRDILVVPVRDAGSEGHHHHHH”, the “soluble on expression in E. coli” value is reported as “soluble”.
For “MSLNEQKAQQLLMFFREQAEKPLSVNELEEALNLEDAQEFKELVQVLNEMEEKGLLVRTRSNRYGVPEKMNLLRGVVQGHAKGFAFVIPEEEGHSDVYVSHVDLESAMNGDRVIVRLHPHSTGTRPEGKVIRILERGVSEVIGTYVDHQTYGLVVADDKRIPNDILIVNPEAQGLVDGHKVIVKITKYPEGRMSAEGEVISILGHKNDPGMDILSIIYKYGIPQAFPEEVLQQAQNIPDEIDAGEIKNRRDLRDEPLVTIDGADAKDLDDAVHVSRLPNGNFKLGVHIADVSYYVKEKSPIDLEAAERGTSVYLVDRVIPMIPHRLSNGICSLNPQVDRLTLSCEMEITRDGQVVNHEIFQSVIRTNERMTYHDVNKILVEKEEELRNRYELLVPMFEDMEELAAILRKKRFGRGAIDFDFKEAKVLVDEEGKPSDVVIRERGVAEKLIEEFMLAANETVAEHFHWLKLPFMYRIHEDPDSEKLGRFLEFITNFGYVVRGTANTVHPRALQKLLEEVRGEPEEQVISTVMLRSMQQAKYDPTSLGHFGLSTEFYTHFTSPIRRYPDLIVHRLIREYLIKGNVDEETQEKWRERLPEIARHCSEMERRAVDAERETDDVKKAQFMEDKIGETFTGIISGVTNFGIFVELENTIEGLVHVSYLTDDYYRYDEKHYAMIGERSGNVFRIGDEIEVRVINVNVEEASIDFEIVGMKPRKQRPDKSRPKVIEGGKRKKKENRGALALDGSKPKKKKKKKAFYENAPSAKRKKGKKRKREGHHHHHH”, the “soluble on expression in E. coli” value was “soluble”.
For “MSLNESEEKNSNSTYSFFFKNLSVTGFYEENCLFMTVKELFDNSIDALCNNKGDENIDEEGQGTQEKKIEIEIKEYGINSSFYEIICRDNGEGIEVKDLEKISEMFLTSKEKCITSGKFGIGLKTILLYSFKTAYGFLHIKIKVKKNKIWDFILVLDKNLNHTFVQNFKEYIDDKWEWTIEISVILKINNNYISDKKIHSYIKLFLLWKKNITVKYIHNPNGEQSIYTYSSHSDTSEENILSMLANNSINMIFKKDFLTSYNYDVNMYVNVRKSEKIIPYEHGHNIGFLFLIRYVNSMPLLRTSSSDCSITVDFRNFLKYYGPQFGIELPTIESRDEMILEELALPSCFDDLNKVANIFPVKRSEEGHHHHHH”, the “soluble on expression in E. coli” value was “soluble”.
For “MSLNFDSLLLDIDGTLILKGQPLPGAAEALSFARAQGLRLQLLTNTTAKMPEALAQELCQAGIEVVPDEIQTATTACVGYLQQHAQLKCHLLVPDSIRAAFNGILTDDTNPDVVVISDIGEAFDYATLNRCFRMLRGGARLIALQKNLFWFDRDGERLDCGAFIVGLEAAAQVQALVMGKPSPMFFEAALRKLDTCASRTLVVGDDVLTDCAGAKAVGASSLLVRTGKYDLALFDAHRHNVGAVIDGIADFPRWWASGNTADRHDEGHHHHHH”, the “soluble on expression in E. coli” value was “soluble”.
For “MSLNFPGSSSLLIVGASTRAAACSAVRAGFQPVCADQFADRDLRAVSEVVIKIDEHCHWLEEILKREPQNWIYTGALENRPEVINAINQRHTLLGNAEESLKKVRDPFFLQDMLVDQPIAISPCLPVDTQTPPRELWLRKPRLSAAGQGISFADSHTTDPTDSTQYYLQQFQPGIPLSALYLACDDCCVLIGTAVQFIGNRALHATGFQFCGGMTLPSMPPEWRHALGKLGHNIARGCHLRGLFGCDLIWNPDGQPGLWLTEVNPRYTALTELFELQYCLPLLRWHFAACRSCDASSAVAGTLADELIQLLKTKEKRTLSTVSKGIMYAPTDLTTPDLPWESSPRQVAWQIPTIADVPDRGTRIPAGTPVCTLYGTGDDQGECLLSMADQILRCQGQIQPELPRDLSRNEVRNMLWPRKESEKLNFSGFFSSRNVSGSFLEDEGHHHHHH”, the “soluble on expression in E. coli” value was “soluble”.
In the case of “MSLNILDVMKIPAFENANLIAGKAGGEREVQHVNMMDAPDIVDFLHKNELLVTTAYHLKDHPHQLSELIRQMAKRGCAGLGIKTKRYLEDIPKEIIELADSYAFPIIELPEHIRLGDIVNATLSHILDMRSNEGHHHHHH”, the “soluble on expression in E. coli” value is reported as “soluble”.
In the case of “MSLNISNVLFLLHQKFPDPLPDNPICTREETKLAGHLVNILKLAVDHDIDVEERDEVADETFSDWDSIEFEPNDGVIFSSPTELVFGGRVVTREEANTALDYYRSAKAGKRTLEAMRNRFRWITGRHDMDKLKLYEKDRDNFKESRRNLLKFLGERLYEEVKGRLDSGICLHDRDLKMIALDINKKETHVENFKACQTWITNWKRSYNIVSRKITKFVTRRYVRNKAATLQSAKDFVQGCRMDISSYGPEMIFNADQCGIQKELFGARSLAYLGEKSVERIVQSLSSLTHSFTFLPMIFMNGTLGPKAYMKIAEPTGHFPPSRPIPVCSNLEVHAGKSHIMTKDDMRVWLRNCVAHQQCPKKMLMIVDSWTSFKDHATIQSCMQNGVDLTIRNIPPGTTSLIQPLDVHFNGPWKTLIKNFTSYVMSFCPDYIIANRNNTIMMTSLLYHQVSAALFEPFLKYSWNKAGYTDSHDEFVTPADYCFGDVGEEECGFGGCSEFSFIRCARCNCQICFEHFVVDDQHFCPCP”, the “soluble on expression in E. coli” value is reported as “not soluble”.
For “MSLNKFVDREGSVVAVYAAKSKAGCSAPDVEKVNQDAFCLVEKYGDSPNLSWFSVMDGHGLNGHLVSDIVRQILHKNVQECPEFNRDIKQALQKGFFRTNCELFQPGIDITMSGTTCVACVFHGSTLYSANVGDSRAIMGRSNGKGGWTSLSLTHDHKPDRPDEEKRILAADGRVGALKGPNGEALGPARVWRKDCDAPGLAMSRSLGDSLAASVGVIDDFIVIASDGLWEFMTNEEVTQIVSRFLDSRDPLGACDGLIEEANRRWRLEDDVIDDTTVVVIFLDVGRKEGHHHHHH”, the “soluble on expression in E. coli” value was “not soluble”.
For “MSLNKIDMPVLNVKMVPVEKIKSNSYNPNHVAGPEMELLELSILKDGYTQPIVCYCDDKKDEYIIIDGFHRYLIGKSKLDLKELPVVVIDKPLEQRMSSTIRHNRARGKHEIDKMSELVLLLVNEGWDDHKIGKELGMEKEEVLRLKQVTGLKSAFLNHEFSESWDEFVKKNYPKQKDEEGGSHHHHHH”, the “soluble on expression in E. coli” value was “soluble”.
For “MSLNKPVLPKPAPSISSLSLKLPKADRSIETYRLAASRTFPARLEGPLNRIAFSAVHTVADPFADNDPWLSVAVDWDKTIAFREHVWDLGLGVAEAMDTAQRGMGLDWPTSLELITRSVAAAKRRNALVFSGAGTDHLAVEDARTVDDVIRAYEEQISAVEKVGGRIILMASRALAKLGRNADDYAKVYDRVLSQVREPVIIHWLGDMFDPALTGYWGTKDLDKAMDVAVAVINANAAKVDGVKVSLLDKQREIDMRRRLDKRIRMYTGDDFNYAELIAGDSQGFSHALLGIFDAIAPAASYALSRLAAGDEAGFHDVLGPTVPLSRHIFKAPTRFYKTGVVFMAYLNGHQDHFTMVGGQESARSMLHLAELFRLADQAGLLANPELATRRMTTVLASHGIESEGHHHHHH”, the “soluble on expression in E. coli” value was “not soluble”.
With “MSLNLTTTVLSLQLEQPFVSNKGSTTTVHQVVIKLTWQEYGGFGTVLCPKETQLSVEQIQQLIQACEPLLSTATPWQFELYQGQLASVVRNQAAMMAGIDMAWHDLLGKVVAQPIHALWGLAGLSIPPTALSLGAQSEQALVAQAAKLAAWPILKLKLTTDSNLDSLRQLREVYAGRIWVDGNGAWDVDQAIAAAQQCHTYGVELIEQPIPAGNLDQLRTIRQHSPIPIVADEDCRGLADVLRLHTCVDVINLKLFKCGGLRQARTMIDVAKQFGLKVMLGCKTESSLGISAIAQLAGLADYLDLDGHLDLVNDPFQGLVIEQGTLRLPQTPGLGLTIQGAIEEGHHHHHH” the “soluble on expression in E. coli” value was “not soluble”.
In the case of “MSLNNIAPQSPVMRRLTLQDNPAIARVIRQVSAEYGLTADKGYTVADPNLDELYQVYSQPGHAYWVVEYEGEVVGGGGIAPLTGSESDICELQKMYFLPAIRGKGLAKKLALMAMEQAREMGFKRCYLETTAFLKEAIALYEHLGFEHIDYALGCTGHVDCEVRMLRELEGHHHHHH”, the “soluble on expression in E. coli” value is reported as “soluble”.
For “MSLNNNDLVAKLWKLCDNLRDGGVSYQNYVNELASLLFLKMCKETGQEAEYLPEGYRWDDLKSRIGQEQLQFYRKMLVHLGEDDKKLVQAVFHNVSTTITEPKQITALVSNMDSLDWYNGAHGKSRDDFGDMYEGLLQKNANETKSGAGQYFTPRPLIKTIIHLLKPQPREVVQDPAAGTAGFLIEADRYVKSQTNDLDDLDGDTQDFQIHRAFIGLELVPGTRRLALMNCLLHDIEGNLDHGGAIRLGNTLGSDGENLPKAHIVATNPPFGSAAGTNITRTFVHPTSNKQLCFMQHIIETLHPGGRAAVVVPDNVLFEGGKGTDIRRDLMDKCHLHTILRLPTGIFYAQGVKTNVLFFTKGTVANPNQDKNCTDDVWVYDLRTNMPSFGKRTPFTDEHLQPFERVYGEDPHGLSPRTEGEWSFNAEETEVADSEENKNTDQHLATSRWRKFSREWIRTAKSDSLDISWLKDKDSIDADSLPEPDVLAAEAMGELVQALSELDALMRELGASDEADLQRQLLEEAFGGVKEEGGSHHHHHH”, the “soluble on expression in E. coli” value was “soluble”.
For “MSLNNTPRYPQRVRNDLRFRELTVLRVERISAGFQRIVLGGEALDGFTSRGFDDHSKLFFPQPDAHFVPPTVTEEGIVWPEGPRPPSRDYTPLYDELRHELAIDFFIHDGGVASGWAMQAQPGDKLTVAGPRGSLVVPEDYAYQLYVCDESGMPALRRRLETLSKLAVKPQVSALVSVRDNACQDYLAHLDGFNIEWLAHDEQAVDARLAQMQIPADDYFIWITGEGKVVKNLSRRFEAEQYDPQRVRAAAYWHAKEGGSHHHHHH”, the “soluble on expression in E. coli” value was “soluble”.
With “MSLNPNDFKDELKSVALEKANVNLRLDGDISWSFFPWLGLGLEDIGVSIGSDPEILQFDRAEFGLAILPLLKQKIQVDKVNLVNLKASLNKNAQGQGNWQLDLPDSTPAASSSIPATTASTASSTSANDTVEKLKLPDIQLDELRIENAQVQYRDEQTKQLINATLNVQLNDVQWDKAWPMVMDIAVTQSDLQGKSPIKAKATLNANLAVFPEREALSLDSLVLSADVESELLPTSPISAKLSAANVDVDLPQENVLAEGLALSVLGVNVDAKIQAYQVLSEPQFSAVLTVGEFNPRYLMTRLNLPLPEMSDDTAMTKARANVTLEGSLDSITAQPISITIDDTNIEANAVVDLSPLRWDVSVAGKNLDLDRYLPTPVEKGKDGKVEAITDVDIAAKTESGDLIPIDLIRSLNGHVGMVFENLTAKKLKIDKIELDSTQSNGLVKISPLRAYLYKGSVSSKASLDVRGITPVFNISPAIDGVQIQPLLVDFMDMNKIAGATYLNGELKAKGNSVDDLMSSLQGDLLIDIKKGALVGTNLTKTVCEGIAAVRKEKIDEQQFGPDTPFETMRFPAHIVNGRVSTPGLKISSAGIQVTGDGVVSLPNSSLDYQANVGIAGSELDKACHVNEKVTKLAFPIVCKGKFSDDPAGLCRPDIKGFGKLFADLAEDELKLKVDAEKARLKEGHHHHHH” the “soluble on expression in E. coli” value was “soluble”.
With “MSLNPNYSIFAELYDELFDPNMYLSWNGFVQDNSRNNRILDLAGGSGKLAVLLTKSGYQVSILDLSSQMLSLAKQRAENNNFSFDLFQANMAQNWHLNKRFPLISCFADSLNYLSNIGETKRTFFEVFNHLEKNGKFLFDVITPYQVNVVYRNYMYNNDDDPEKIFMWTSFPGDIKNSVDHDLKFFVYQEGIDAFKMVREVHHEQTYPPEKYLSLLKEIGFRNIHLTSDFGRGKITRDTTRAFFVAEKEGHHHHHH” the “soluble on expression in E. coli” value was “not soluble”.
For “MSLNQWMELADRVLAGAEVTDEEALSILHCPDEDILLLMHGAFHIRKHFYGKKVKLNMIMNAKSGLCPENCGYCSQSAISKAPIESYRMVNKETLLEGAKRAHDLNIGTYCIVASGRGPSNREVDQVVDAVQEIKETYGLKICACLGLLKPEQAKRLKDAGVDRYNHNLNTSQRNHSNITTSHTYDDRVNTVEIAKESGLSPCSGAIIGMKETKQDVIDIAKSLKALDADSIPVNFLHAIDGTPLEGVNELNPLYCLKVLALFRFINPSKEIRISGGREVNLRTLQPLGLYAANSIFVGDYLTTAGQEETEDHKMLSDLGFEVESVEEMKASLSAKSEGHHHHHH”, the “soluble on expression in E. coli” value was “soluble”.

From the DeepSol protein solubility set
